pKd: −log10 of the molar value.
Target: POTRA domains of Toc75 (Toc75-POTRA) (Chlamydomonas reinhardtii)
Assay: SPR

“Tic22 (recombinant, His-tagged) (natural protein)” gave a pKd of 5.28.
